The values that follow are results of earlier work, collected in paper PMC3413316.

pKd: −log10 of the molar value.

The target in series [1] is Activated protein C (Homo sapiens) (UniProt P04070).
Series [2] has as its target Protein C (Homo sapiens) (UniProt P04070).

Sequence of EPCR (Q9UNN8 18-210): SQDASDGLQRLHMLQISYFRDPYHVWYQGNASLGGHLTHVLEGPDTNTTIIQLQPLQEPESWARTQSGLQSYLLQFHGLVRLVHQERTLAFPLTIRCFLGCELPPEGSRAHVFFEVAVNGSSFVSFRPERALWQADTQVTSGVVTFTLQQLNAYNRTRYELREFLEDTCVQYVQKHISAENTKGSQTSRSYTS
Sequence of Activated protein C (Homo sapiens) (P04070 43-197, chain 1 of 2): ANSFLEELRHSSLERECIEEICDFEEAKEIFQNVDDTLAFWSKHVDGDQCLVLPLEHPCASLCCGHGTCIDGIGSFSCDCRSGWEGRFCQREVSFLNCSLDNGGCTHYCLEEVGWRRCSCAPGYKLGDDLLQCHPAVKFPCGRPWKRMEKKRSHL
Sequence of Activated protein C (Homo sapiens) (P04070 212-461, chain 2 of 2): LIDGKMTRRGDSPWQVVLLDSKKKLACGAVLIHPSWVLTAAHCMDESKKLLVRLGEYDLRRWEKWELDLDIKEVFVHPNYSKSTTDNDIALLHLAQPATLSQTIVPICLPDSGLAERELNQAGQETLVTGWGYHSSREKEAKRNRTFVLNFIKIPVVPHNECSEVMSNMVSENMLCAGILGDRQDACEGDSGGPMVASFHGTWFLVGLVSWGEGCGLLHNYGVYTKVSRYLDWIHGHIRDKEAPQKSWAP
Sequence of Protein C (Homo sapiens) (P04070 43-197): as the sequence (P04070 43-197, chain 1 of 2) above

For orientation: pKd means the negative decadic logarithm of the Kd, by convention in mol/L. For EPCR (from UniProt Q9UNN8), the pKd in series [1] and in series [2] was 7.22 each time.
